The values that follow come from patent US20190233824A1, “PD-1 SPECIFIC APTAMERS” (THE METHODIST HOSPITAL SYSTEM, published 2019).

This data set deals with PD-1 (PDCD1, recombinant full length) (Homo sapiens, UniProt Q15116 Q15116:25-288). The data set can be described thus: BLI; per-concentration fits 9.90, 4.17, 1.34 nM; phosphate pH 7.4, 137 mM NaCl, 2.7 mM KCl, 0.1% BSA, 0.01% Tween-20, 25 C. To be noted: tags: ACROBiosystems, produced in HEK293; label: 5' biotin (BLI) or FAM (flow); predicted hairpin-bulge / possible G-quadruplex.
Chain of PD-1 (PDCD1, recombinant full length) (Q15116 25-288, one chain of several): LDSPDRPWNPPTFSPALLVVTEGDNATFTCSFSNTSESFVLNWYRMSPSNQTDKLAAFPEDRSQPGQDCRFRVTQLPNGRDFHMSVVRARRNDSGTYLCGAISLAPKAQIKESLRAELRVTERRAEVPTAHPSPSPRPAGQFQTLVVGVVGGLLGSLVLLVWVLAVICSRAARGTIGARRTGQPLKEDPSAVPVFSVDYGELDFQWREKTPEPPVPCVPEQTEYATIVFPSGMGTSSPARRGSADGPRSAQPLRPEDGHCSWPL

Experimental: Specific PD-1 5′ biotinylated DNA aptamer (Midland Oligos) were prepared in the concentration range of (10 nM and 100 nM). […] Octet Red analysis software (ForteBio) was used to analyze the sensorgram data.

B1: fpf2 (10-150-373) (ssDNA)
DNA: CCGTATACATACCTGATAGCGTATGCGAGGAAGTGGGCTTGGTGTGGTGGGCTTCTCTCAGTAGGTGCATAAGCGCATGCATGC
Turning to B1, the binding result is “binds”.
